These results are taken from US7229755 (Dana-Farber, dated 2007).

In test [1] the target is (Gal4 binding domain)-hMsh2 fusion (pAS1-hMSH2) (human, UniProt P04386 1-147 (Saccharomyces cerevisiae entry), limits assumed). Kind of test: cell-based or functional assay.
For test [2], the target named is T1, hMsh2 protein with a hexa-HIS and factor Xa leader peptide at the N-terminus (overproduced in E. coli from a … (human, UniProt P43246 1-934)).
T1 construct: The leader peptide was not cleaved; The preparation was more than 50% pure; also called human Msh2; MSH2hu protein; not shown: hexa-HIS and factor Xa leader peptide from the pET vector derivative (Invitrogen)
Kind of test: gel-shift (supershift) of hMsh2 bound to a 32P-labelled 39-bp GT-mismatch duplex, with E. coli extract containing hMlh1. Here is the method: Mismatch binding by human mismatch repair proteins was studied using a gel-shift binding assay. Briefly, protein fractions are incubated with a ^32P-labelled 39-basepair oligonucleotide duplex that was designed to minimize intramolecular interactions (Oligo Designs), and also contained a GT mismatch at position 20. Incubations were done for 10 minutes at 23° C. in 20 mM Tris (pH 7.5), 50 mM KCl, 1 mM DTT, and 0.1 mM EDTA to allow formation of protein-DNA complexes. Several different competitor nucleic acids (e.g. poly dI-dC, an otherwise identical 39-mer that lacked the mismatch, and/or unlabelled mismatched substrate) were added to minimize nonspecific binding. Reactions were then loaded onto a 6% acrylamide gel in TBE, and were electrophoresed.

B1: (Gal4 activation domain)-hMlh1 fusion (pACTII-hMLH1) (other, not shown: large carriers)
chain: MSFVAGVIRRLDETVVNRIAAGEVIQRPANAIKEMIENCLDAKSTSIQVIVKEGGLKLIQIQDNGTGIRKEDLDIVCERFTTSKLQSFEDLASISTYGFRGEALASISHVAHVTITTKTADGKCAYRASYSDGKLKAPPKPCAGNQGTQITVEDLFYNIATRRKALKNPSEEYGKILEVVGRYSVHNAGISFSVKKQGETVADVRTLPNASTVDNIRSIFGNAVSRELIEIGCEDKTLAFKMNGYISNANYSVKKCIFLLFINHRLVESTSLRKAIETVYAAYLPKNTHPFLYLSLEISPQNVDVNVHPTKHEVHFLHEESILERVQQHIESKLLGSNSSRMYFTQTLLPGLAGPSGEMVKSTTSLTSSSTSGSSDKVYAHQMVRTDSREQKLDAFLQPLSKPLSSQPQAIVTEDKTDISSGRARQQDEEMLELPAPAEVAAKNQSLEGDTTKGTSEMSEKRGPTSSNPRKRHREDSDVEMVEDDSRKEMTAACTPRRRIINLTSVLSLQEEINEQGHEVLREMLHNHSFVGCVNPQWALAQHQTKLYLLNTTKLSEELFYQILIYDFANFGVLRLSEPAPLFDLAMLALDSPESGWTEEDGPKEGLAEYIVEFLKKKAEMLADYFSLEIDEEGNLIGLPLLIDNYVPPLEGLPIFILRLATEVNWDEEKECFESLSKECAMFYSIRKQYISEESTLSGQQSEVPGSIPNSWKWTVEHIVYKALRSHILPPKHFTEDGNILQLANLPDLYKVFERC
As for B1, in test [1], the “β-galactosidase activity (GAL4 promoter-β-galactosidase reporter, yeast Two-Hybrid)” value was approximately 100 fold.

B2: hMlh1 protein overproduced in E. coli from pET-hMLH1 constructs (used as clarified bacterial extract) (other)
chain: MSFVAGVIRRLDETVVNRIAAGEVIQRPANAIKEMIENCLDAKSTSIQVIVKEGGLKLIQIQDNGTGIRKEDLDIVCERFTTSKLQSFEDLASISTYGFRGEALASISHVAHVTITTKTADGKCAYRASYSDGKLKAPPKPCAGNQGTQITVEDLFYNIATRRKALKNPSEEYGKILEVVGRYSVHNAGISFSVKKQGETVADVRTLPNASTVDNIRSIFGNAVSRELIEIGCEDKTLAFKMNGYISNANYSVKKCIFLLFINHRLVESTSLRKAIETVYAAYLPKNTHPFLYLSLEISPQNVDVNVHPTKHEVHFLHEESILERVQQHIESKLLGSNSSRMYFTQTLLPGLAGPSGEMVKSTTSLTSSSTSGSSDKVYAHQMVRTDSREQKLDAFLQPLSKPLSSQPQAIVTEDKTDISSGRARQQDEEMLELPAPAEVAAKNQSLEGDTTKGTSEMSEKRGPTSSNPRKRHREDSDVEMVEDDSRKEMTAACTPRRRIINLTSVLSLQEEINEQGHEVLREMLHNHSFVGCVNPQWALAQHQTKLYLLNTTKLSEELFYQILIYDFANFGVLRLSEPAPLFDLAMLALDSPESGWTEEDGPKEGLAEYIVEFLKKKAEMLADYFSLEIDEEGNLIGLPLLIDNYVPPLEGLPIFILRLATEVNWDEEKECFESLSKECAMFYSIRKQYISEESTLSGQQSEVPGSIPNSWKWTVEHIVYKALRSHILPPKHFTEDGNILQLANLPDLYKVFERC
notes: The protein was not purified and was used as clarified bacterial extract; also called hMLH1 gene product
As for B2, the binding result in test [2] is listed as “binds”.
